According to article PMC9482650, “Quantitative fragmentomics allow affinity mapping of interactomes” (Nature Communications, 2022):

The binders below were run against T1, PDZD2_4, O15018 (assay: holdup assay). Details: plain residues with an end cap or a label only (N-terminal biotin on a linker: ttds).
T1 sequence (O15018 723-823, limits assumed, looked up): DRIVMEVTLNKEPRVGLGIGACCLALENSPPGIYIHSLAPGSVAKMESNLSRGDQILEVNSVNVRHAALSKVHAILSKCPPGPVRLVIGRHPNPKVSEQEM
Design: key: below the threshold = too weak to quantify, mostly under pKd 3.1 to 4
For PSRDRKETSI [RALBP1, Q15311], the pKd was “below the threshold”. SHSSKGETAV [FZD7, O75084] was tested, and the pKd was “below the threshold”.

The binders below were run against DVL2, O14641 (assay: holdup assay). Details: plain residues with an end cap or a label only (N-terminal biotin on a linker: ttds).
Sequence of DVL2, O14641 (O14641 260-359): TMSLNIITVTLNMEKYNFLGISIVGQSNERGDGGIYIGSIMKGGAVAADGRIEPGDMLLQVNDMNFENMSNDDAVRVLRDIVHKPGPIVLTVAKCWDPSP
Design: key: below the threshold = too weak to quantify, mostly under pKd 3.1 to 4
PSRDRKETSI [RALBP1, Q15311] was tested, and the pKd was “below the threshold”. With SHSSKGETAV [FZD7, O75084] the pKd was “below the threshold”.

Each binder was assayed against TJP1_1, Q07157 (assay: holdup assay). Details: plain residues with an end cap or a label only (N-terminal biotin on a linker: ttds).
Sequence of TJP1_1, Q07157 (Q07157 18-120): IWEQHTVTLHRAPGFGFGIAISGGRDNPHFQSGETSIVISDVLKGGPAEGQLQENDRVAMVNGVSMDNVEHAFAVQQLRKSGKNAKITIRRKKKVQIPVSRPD
Design: key: below the threshold = too weak to quantify, mostly under pKd 3.1 to 4
For PSRDRKETSI [RALBP1, Q15311], the pKd was “below the threshold”. SHSSKGETAV [FZD7, O75084] was tested, and the pKd was “below the threshold”.

What follows are binders tested against PARD3B_3, Q8TEW8 (assay: holdup assay). Details: plain residues with an end cap or a label only (N-terminal biotin on a linker: ttds).
Sequence of PARD3B_3, Q8TEW8 (Q8TEW8 490-594): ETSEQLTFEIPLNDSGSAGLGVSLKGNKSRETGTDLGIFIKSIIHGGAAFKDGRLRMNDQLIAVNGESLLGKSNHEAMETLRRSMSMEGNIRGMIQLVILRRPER
Design: key: below the threshold = too weak to quantify, mostly under pKd 3.1 to 4
In the case of PSRDRKETSI [RALBP1, Q15311], the pKd is reported as “below the threshold”. In the case of SHSSKGETAV [FZD7, O75084], the pKd is reported as “below the threshold”.

What follows are binders tested against MAGIX, Q9H6Y5 (assay: holdup assay). Details: plain residues with an end cap or a label only (N-terminal biotin on a linker: ttds).
Sequence of MAGIX, Q9H6Y5 (Q9H6Y5 118-211): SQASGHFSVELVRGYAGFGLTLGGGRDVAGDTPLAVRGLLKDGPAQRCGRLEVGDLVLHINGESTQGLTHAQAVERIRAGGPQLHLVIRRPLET
Design: key: below the threshold = too weak to quantify, mostly under pKd 3.1 to 4
For PSRDRKETSI [RALBP1, Q15311], the pKd was “below the threshold”. SHSSKGETAV [FZD7, O75084] was tested, and the pKd was “below the threshold”.

Each binder was assayed against T2, PDLIM3, Q53GG5 (assay: holdup assay). Details: plain residues with an end cap or a label only (N-terminal biotin on a linker: ttds).
T2 sequence (Q53GG5 1-94, limits assumed, looked up): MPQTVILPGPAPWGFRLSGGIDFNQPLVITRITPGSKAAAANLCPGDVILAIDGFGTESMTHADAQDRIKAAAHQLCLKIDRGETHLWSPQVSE
Design: key: below the threshold = too weak to quantify, mostly under pKd 3.1 to 4
PSRDRKETSI [RALBP1, Q15311] was tested, and the pKd was “below the threshold”. In the case of SHSSKGETAV [FZD7, O75084], the pKd is reported as “below the threshold”.

What follows are binders tested against RIMS2, Q9UQ26 (assay: holdup assay). Details: plain residues with an end cap or a label only (N-terminal biotin on a linker: ttds).
Sequence of RIMS2, Q9UQ26 (Q9UQ26 637-758): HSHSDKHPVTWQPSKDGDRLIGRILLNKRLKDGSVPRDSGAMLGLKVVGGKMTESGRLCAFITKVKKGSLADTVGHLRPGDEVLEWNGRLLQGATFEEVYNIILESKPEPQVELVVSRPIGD
Design: key: below the threshold = too weak to quantify, mostly under pKd 3.1 to 4
PSRDRKETSI [RALBP1, Q15311] was tested, and the pKd was “below the threshold”. In the case of SHSSKGETAV [FZD7, O75084], the pKd is reported as “below the threshold”.

What follows are binders tested against T3, MPDZ_13, O75970 (assay: holdup assay). Details: plain residues with an end cap or a label only (N-terminal biotin on a linker: ttds).
T3 sequence (O75970 1982-2070, limits assumed, looked up): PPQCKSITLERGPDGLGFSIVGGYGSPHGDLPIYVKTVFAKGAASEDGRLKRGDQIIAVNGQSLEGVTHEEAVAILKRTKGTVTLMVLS
Design: key: below the threshold = too weak to quantify, mostly under pKd 3.1 to 4
For PSRDRKETSI [RALBP1, Q15311], the pKd was “below the threshold”. SHSSKGETAV [FZD7, O75084] was tested, and the pKd was “below the threshold”.

What follows are binders tested against T4, NHERF1_1, O14745 (assay: holdup assay). Details: plain residues with an end cap or a label only (N-terminal biotin on a linker: ttds).
T4 sequence (O14745 9-104, limits assumed, looked up): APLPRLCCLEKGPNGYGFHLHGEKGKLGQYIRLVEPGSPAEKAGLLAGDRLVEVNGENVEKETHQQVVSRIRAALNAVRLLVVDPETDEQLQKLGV
Design: key: below the threshold = too weak to quantify, mostly under pKd 3.1 to 4
For PSRDRKETSI [RALBP1, Q15311], the pKd was “below the threshold”. For SHSSKGETAV [FZD7, O75084], the pKd was “below the threshold”.

The binders below were run against T5, PDZD4, Q76G19 (assay: holdup assay). Details: plain residues with an end cap or a label only (N-terminal biotin on a linker: ttds).
T5 sequence (Q76G19 125-224, limits assumed, looked up): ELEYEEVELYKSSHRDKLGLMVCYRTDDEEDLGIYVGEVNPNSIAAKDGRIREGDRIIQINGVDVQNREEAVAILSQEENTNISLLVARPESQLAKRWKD
Design: key: below the threshold = too weak to quantify, mostly under pKd 3.1 to 4
In the case of PSRDRKETSI [RALBP1, Q15311], the pKd is reported as “below the threshold”. With SHSSKGETAV [FZD7, O75084] the pKd was “below the threshold”.

These binders were tested against T6, SHANK3, Q9BYB0 (assay: holdup assay). Details: plain residues with an end cap or a label only (N-terminal biotin on a linker: ttds).
T6 sequence (Q9BYB0 641-750, limits assumed, looked up): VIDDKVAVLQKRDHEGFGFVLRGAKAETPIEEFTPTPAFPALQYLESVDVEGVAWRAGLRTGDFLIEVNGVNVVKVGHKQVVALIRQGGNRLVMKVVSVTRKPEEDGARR
Design: key: below the threshold = too weak to quantify, mostly under pKd 3.1 to 4
With PSRDRKETSI [RALBP1, Q15311] the pKd was “below the threshold”. With SHSSKGETAV [FZD7, O75084] the pKd was “below the threshold”.

Each binder was assayed against IL16_2, Q14005 (assay: holdup assay). Details: plain residues with an end cap or a label only (N-terminal biotin on a linker: ttds).
Sequence of IL16_2, Q14005 (Q14005 350-450): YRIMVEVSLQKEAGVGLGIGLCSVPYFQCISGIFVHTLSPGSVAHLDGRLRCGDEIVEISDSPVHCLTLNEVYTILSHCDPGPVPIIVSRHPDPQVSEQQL
Design: key: below the threshold = too weak to quantify, mostly under pKd 3.1 to 4
With PSRDRKETSI [RALBP1, Q15311] the pKd was “below the threshold”. For SHSSKGETAV [FZD7, O75084], the pKd was “below the threshold”.

Each binder was assayed against T7, PDZD2_1, O15018 (assay: holdup assay). Details: plain residues with an end cap or a label only (N-terminal biotin on a linker: ttds).
T7 sequence (O15018 80-192, limits assumed, looked up): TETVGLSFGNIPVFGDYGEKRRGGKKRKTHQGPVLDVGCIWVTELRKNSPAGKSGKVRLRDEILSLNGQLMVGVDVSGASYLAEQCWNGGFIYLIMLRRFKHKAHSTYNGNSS
Design: key: below the threshold = too weak to quantify, mostly under pKd 3.1 to 4
PSRDRKETSI [RALBP1, Q15311] was tested, and the pKd was “below the threshold”. In the case of SHSSKGETAV [FZD7, O75084], the pKd is reported as “below the threshold”.

Each binder was assayed against T8, DVL1, O14640 (assay: holdup assay). Details: plain residues with an end cap or a label only (N-terminal biotin on a linker: ttds).
T8 sequence (O14640 246-333, limits assumed, looked up): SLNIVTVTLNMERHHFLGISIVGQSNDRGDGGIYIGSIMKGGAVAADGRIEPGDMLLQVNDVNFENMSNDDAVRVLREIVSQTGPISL
Design: key: below the threshold = too weak to quantify, mostly under pKd 3.1 to 4
For PSRDRKETSI [RALBP1, Q15311], the pKd was “below the threshold”. For SHSSKGETAV [FZD7, O75084], the pKd was “below the threshold”.

The binders below were run against T9, LNX2_4, Q8N448 (assay: holdup assay). Details: plain residues with an end cap or a label only (N-terminal biotin on a linker: ttds).
T9 sequence (Q8N448 595-690, limits assumed, looked up): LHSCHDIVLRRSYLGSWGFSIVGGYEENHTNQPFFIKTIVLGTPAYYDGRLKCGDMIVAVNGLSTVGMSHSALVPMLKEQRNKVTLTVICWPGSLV
Design: key: below the threshold = too weak to quantify, mostly under pKd 3.1 to 4
For PSRDRKETSI [RALBP1, Q15311], the pKd was “below the threshold”. For SHSSKGETAV [FZD7, O75084], the pKd was “below the threshold”.

Each binder was assayed against T10, PDZD2_5, O15018 (assay: holdup assay). Details: plain residues with an end cap or a label only (N-terminal biotin on a linker: ttds).
T10 sequence (O15018 2617-2716, limits assumed, looked up): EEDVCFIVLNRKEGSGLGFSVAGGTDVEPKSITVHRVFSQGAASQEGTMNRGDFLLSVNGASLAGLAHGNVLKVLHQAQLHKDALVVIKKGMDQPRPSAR
Design: key: below the threshold = too weak to quantify, mostly under pKd 3.1 to 4
In the case of PSRDRKETSI [RALBP1, Q15311], the pKd is reported as “below the threshold”. For SHSSKGETAV [FZD7, O75084], the pKd was “below the threshold”.

What follows are binders tested against MAGI3_3, Q5TCQ9 (assay: holdup assay). Details: plain residues with an end cap or a label only (N-terminal biotin on a linker: ttds).
Sequence of MAGI3_3, Q5TCQ9 (Q5TCQ9 572-655): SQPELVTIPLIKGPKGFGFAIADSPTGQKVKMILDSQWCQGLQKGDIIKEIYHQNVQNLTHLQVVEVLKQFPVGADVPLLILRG
Design: key: below the threshold = too weak to quantify, mostly under pKd 3.1 to 4
With PSRDRKETSI [RALBP1, Q15311] the pKd was “below the threshold”. For SHSSKGETAV [FZD7, O75084], the pKd was 4.54.

Each binder was assayed against T11, SNTB2, Q13425 (assay: holdup assay). Details: plain residues with an end cap or a label only (N-terminal biotin on a linker: ttds).
T11 sequence (Q13425 110-208, limits assumed, looked up): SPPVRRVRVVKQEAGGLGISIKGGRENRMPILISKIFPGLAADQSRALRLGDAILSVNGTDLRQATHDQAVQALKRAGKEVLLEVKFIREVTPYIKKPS
Design: key: below the threshold = too weak to quantify, mostly under pKd 3.1 to 4
PSRDRKETSI [RALBP1, Q15311] gave a pKd of 3.94. In the case of SHSSKGETAV [FZD7, O75084], the pKd is reported as “below the threshold”.

The binders below were run against NHERF2_1, Q15599 (assay: holdup assay). Details: plain residues with an end cap or a label only (N-terminal biotin on a linker: ttds).
Sequence of NHERF2_1, Q15599 (Q15599 9-91): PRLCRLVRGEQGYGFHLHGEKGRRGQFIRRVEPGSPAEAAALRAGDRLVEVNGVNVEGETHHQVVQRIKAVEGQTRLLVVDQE
Design: key: below the threshold = too weak to quantify, mostly under pKd 3.1 to 4
PSRDRKETSI [RALBP1, Q15311] was tested, and the pKd was “below the threshold”. SHSSKGETAV [FZD7, O75084] was tested, and the pKd was “below the threshold”.

Each binder was assayed against T12, GRIP1_1, Q9Y3R0 (assay: holdup assay). Details: plain residues with an end cap or a label only (N-terminal biotin on a linker: ttds).
T12 sequence (Q9Y3R0 48-146, limits assumed, looked up): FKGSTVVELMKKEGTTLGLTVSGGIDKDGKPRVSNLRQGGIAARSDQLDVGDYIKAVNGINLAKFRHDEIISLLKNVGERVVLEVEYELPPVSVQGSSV
Design: key: below the threshold = too weak to quantify, mostly under pKd 3.1 to 4
For PSRDRKETSI [RALBP1, Q15311], the pKd was “below the threshold”. With SHSSKGETAV [FZD7, O75084] the pKd was “below the threshold”.

Each binder was assayed against T13, TJP3_1, O95049 (assay: holdup assay). Details: plain residues with an end cap or a label only (N-terminal biotin on a linker: ttds).
T13 sequence (O95049 6-103, limits assumed, looked up): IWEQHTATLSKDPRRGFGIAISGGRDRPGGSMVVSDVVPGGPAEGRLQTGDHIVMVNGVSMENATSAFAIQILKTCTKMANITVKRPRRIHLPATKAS
Design: key: below the threshold = too weak to quantify, mostly under pKd 3.1 to 4
PSRDRKETSI [RALBP1, Q15311] was tested, and the pKd was “below the threshold”. For SHSSKGETAV [FZD7, O75084], the pKd was “below the threshold”.

Each binder was assayed against T14, MPDZ_6, O75970 (assay: holdup assay). Details: plain residues with an end cap or a label only (N-terminal biotin on a linker: ttds).
T14 sequence (O75970 1003-1099, limits assumed, looked up): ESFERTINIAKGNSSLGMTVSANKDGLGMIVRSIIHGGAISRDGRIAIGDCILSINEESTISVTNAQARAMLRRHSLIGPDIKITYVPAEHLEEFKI
Design: key: below the threshold = too weak to quantify, mostly under pKd 3.1 to 4
With PSRDRKETSI [RALBP1, Q15311] the pKd was “below the threshold”. With SHSSKGETAV [FZD7, O75084] the pKd was “below the threshold”.

The binders below were run against RGS3, P49796-9 (assay: holdup assay). Details: plain residues with an end cap or a label only (N-terminal biotin on a linker: ttds).
Sequence of RGS3, P49796-9 (P49796 other isoform, or with tags, fused parts or gaps): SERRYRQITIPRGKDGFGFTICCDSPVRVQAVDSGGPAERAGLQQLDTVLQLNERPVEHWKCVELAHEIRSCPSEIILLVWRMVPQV
Design: key: below the threshold = too weak to quantify, mostly under pKd 3.1 to 4
In the case of PSRDRKETSI [RALBP1, Q15311], the pKd is reported as “below the threshold”. SHSSKGETAV [FZD7, O75084] was tested, and the pKd was “below the threshold”.
